Data from publication PMC10808743, “Generation of human TMEM16F-specific affibodies using purified TMEM16F” (Frontiers in Molecular Biosciences, 2023).

Target: the molecule itself
Experiment: SEC; 40 μg TMEM16F (0.4 mg/mL) incubated with 40 μg #50 affibody (0.5 mg/mL) for 2 h at 4°C, separated on Superose 6 FPLC; fractions around 14.8 mL analysed by SDS-PAGE and Western blot

B1: human TMEM16F (hTMEM16F) variant 1, SBP-tagged, purified (natural protein, UniProt Q4KMQ2-1 1-910, looked up)
chain: MKKMSRNVLLQMEEEEDDDDGDIVLENLGQTIVPDLGSLESQHDFRTPEFEEFNGKPDSLFFNDGQRRIDFVLVYEDESRKETNKKGTNEKQRRKRQAYESNLICHGLQLEATRSVLDDKLVFVKVHAPWEVLCTYAEIMHIKLPLKPNDLKNRSSAFGTLNWFTKVLSVDESIIKPEQEFFTAPFEKNRMNDFYIVDRDAFFNPATRSRIVYFILSRVKYQVINNVSKFGINRLVNSGIYKAAFPLHDCKFRRQSEDPSCPNERYLLYREWAHPRSIYKKQPLDLIRKYYGEKIGIYFAWLGYYTQMLLLAAVVGVACFLYGYLNQDNCTWSKEVCHPDIGGKIIMCPQCDRLCPFWKLNITCESSKKLCIFDSFGTLVFAVFMGVWVTLFLEFWKRRQAELEYEWDTVELQQEEQARPEYEARCTHVVINEITQEEERIPFTAWGKCIRITLCASAVFFWILLIIASVIGIIVYRLSVFIVFSAKLPKNINGTDPIQKYLTPQTATSITASIISFIIIMILNTIYEKVAIMITNFELPRTQTDYENSLTMKMFLFQFVNYYSSCFYIAFFKGKFVGYPGDPVYWLGKYRNEECDPGGCLLELTTQLTIIMGGKAIWNNIQEVLLPWIMNLIGRFHRVSGSEKITPRWEQDYHLQPMGKLGLFYEYLEMIIQFGFVTLFVASFPLAPLLALVNNILEIRVDAWKLTTQFRRLVPEKAQDIGAWQPIMQGIAILAVVTNAMIIAFTSDMIPRLVYYWSFSVPPYGDHTSYTMEGYINNTLSIFKVADFKNKSKGNPYSDLGNHTTCRYRDFRYPPGHPQEYKHNIYYWHVIAAKLAFIIVMEHVIYSVKFFISYAIPDVSKRTKSKIQREKYLTQKLLHENHLKDMTKNMGVIAERMIEAVDNNLRPKSE
notes: Human TMEM16F variant 1 (anoctamin-6), cDNA clone NM_001025356.2 bought from Genescript; called 'purified whole TMEM16F protein' in the discussion; In one BLI experiment the same protein was incorporated into nanodiscs (MSP 2N2, Addgene #29520; POPC:POPG 3:1; TMEM16F:MSP:lipid 1:5:100) under detergent-free conditions; also called purified human TMEM16F protein; TMEM16F-nanodisc complex (when …)
stoichiometry N: 2
